The results in this text go back to patent publication US20090286314A1 (Innovent, published 2009).

Series [1] deals with the molecule itself. As to the kind of experiment: gel chromatography, HiPrep Sephacryl S-200, high protein concentrations (self-association). The text has this: (§1) The wild-type fluorescent proteins have a tendency to self-aggregate and form tetramers. Among the limited number of new FPs that we so far have analyzed, no monomeric variant has been observed, but the tendency to self-aggregate appears to vary among individual variants. In order to generate a pure monomeric variant, which would be advantageous for certain applications, the protein R-5 (SEQ ID NO: 79) was subjected to limited mutagenesis after extensive 3-D modelling. Three amino acid residues were chosen as suitable candidates for mutagenesis, and three mutants with single, double and triple mutations were constructed and custom made by an external laboratory. After expression in E. coli and purification their aggregation state were analyzed by gel-chromatography on a HiPrep Sephacryl S-200 column. The conditions used (i.e. high protein concentrations) were chosen to promote aggregation, and EGFP, which is a weak forming dimer, did elute as a peak with an apparent molecular weight of ˜60 kDa, i.e. as a dimer.

Series [2] deals with the molecule itself. As to the kind of experiment: gel chromatography, HiPrep Sephacryl S-200, high protein concentrations chosen to promote aggregation (self-association).
Source text: as §1

B1: double mutant of R-5 (Mut B) (other)
chain: MSLPATHDLHISGSINGHEFDLEGSGKGNAKEGYQELHLKSNKGDLSFSPWILVPNIGYGFYQYLPFPDGAMSPYQAAMHDGSGYVMHRSMQFEDGAMLHSDHRYIYKGNHIKGEFRLKGSGFPADGPVMTNSLTAADWCVDKLLYPNDNTIIGKFDWTYTTTSGKRYQSDVQTTVTFGKPIAADILKKQPMFVFRKVELKHTKTELNFKQWQKAFQDIA
notes: Expressed in E. coli and purified; Eluted as a dimer; also called dimeric mutant
Consider B1, for which, in series [1], the binding result was “binds”.

B2: triple mutant of R-5 (Mut C) (other)
chain: MSLPATHDLHISGSINGHEFDLEGSGKGNAKEGYQELHLKSNKGDLSFSPWILVPNIGYGFYQYLPFPDGAMSPYQAAMHDGSGYVMHRSMQFEDGAMLHSDHRYIYKGNHIKGEFRLKGSGFPADGPVMTNSLTAADWCVDKLLYPNDNTIIGKFKWTYTTTSGKRYQSDVQTTVTFGKPIAADILKKQPMFVFRKVELKHTKTELNFKQWQKAFQDIA
notes: Expressed in E. coli and purified; Eluted as a monomer; also called R-5C; monomeric mutant
As for B2, in series [2], the binding result is “no binding”.
